Measurements published in US20240241135A1 (SENBOLL BIOTECHNOLOGY, published 2024).

T1: recombinant human regenerating islet-derived protein 1α (REG1A) (human, UniProt P05451 23-166, limits assumed)
T1 construct: also called recombinant human REG1A; recombinant REG1A
T1 sequence (looked up): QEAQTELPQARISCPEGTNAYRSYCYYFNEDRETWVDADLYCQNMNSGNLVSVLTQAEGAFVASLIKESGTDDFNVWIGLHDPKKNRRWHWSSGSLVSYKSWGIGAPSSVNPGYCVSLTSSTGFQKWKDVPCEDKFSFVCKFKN

B1: antibody 21B11D2 (antibody, mouse IgG2b, kappa, V domains shown)
VH: QAQLQQSGAELVRPGASVTLSCKASGYIFTDYEMHWVKQTPVHGLEWIGAIDPETGGTAYNQKFKGKARLTADKSSSTAYMELRSLTSEDSAVYYCTIYYTNHFDYWGQGTTLTVSS
VL: DVVMTQTPLSLPVSLGDQASISCRSSQSLVYSNGDTYLYWYLQKPGQSPKLLIYKVSNRFSGVPDRFSGSGSGTDFTLKISRVEAEDLGVYFCSQSTHVPLTFGAGTKLELKR
notes: Mouse monoclonal from hybridoma, stated mouse IgG1/Kappa; Used unlabelled as capture and biotin-labelled as detection antibody; also called 21B11D2-biotin
B2: antibody 12F12A10 (antibody, V domains shown)
VH: QVQLQQSATELARPGASVKMSCKASGYTFTSYMMHWVKQRPGQGLEWIGYINPSSGYTDYNQKFKDKTTLTADKSSSTAYMQLSSLTSEDSAVYYCARYRYPHYFDYWGQGTTLTVSS
VL: QIVLTQSPAIMSASPGEKVTMTCSASSSVSYIHWYQQKSGTSPKRWIYDTSKLASGVPARFSGSGSGTSYSLTISSMEAEDAAIYYCQQWSSNPPTFGAGTKLELKR
notes: Mouse monoclonal from hybridoma, stated mouse IgG1/Kappa; also called 12F12A10-biotin; Antibody 2

Columns and labels:
[1] = molecular target: T1, recombinant human regenerating …; assay: sandwich ELISA; capture 21B11D2; REG1A 3.70 ng/mL
In short: (§1)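 Sandwich ELISA with the capture monoclonal antibody coated overnight at 4 °C in PBS, then blocking for 2 h at 37 °C. Recombinant human REG1A in basic diluent (100 μL per well) was incubated for 1 h at 37 °C. It was then detected with a horseradish peroxidase-based detection antibody system and TMB substrate for 15 min at 37 °C, and stopped with 0.2M sulfuric acid. OD value is the absorbance at 450 nm minus that at 620/630 nm.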

[2] = molecular target: T1, recombinant human regenerating …; assay: sandwich ELISA; capture 11D11B11; REG1A 1.23 ng/mL
In short: as §1

[3] = molecular target: T1, recombinant human regenerating …; assay: sandwich ELISA; capture 12F12A10; REG1A 100.00 ng/mL
In short: as §1

[4] = molecular target: T1, recombinant human regenerating …; assay: sandwich ELISA; capture 4H8F1; REG1A 0 ng/mL (blank)
In short: as §1

[5] = molecular target: T1, recombinant human regenerating …; assay: sandwich ELISA; capture 12F12A10; REG1A 3.70 ng/mL
In short: as §1

[6] = molecular target: T1, recombinant human regenerating …; assay: sandwich ELISA; capture 11D11B11; REG1A 33.33 ng/mL
In short: as §1

[7] = molecular target: T1, recombinant human regenerating …; assay: sandwich ELISA; capture 12F12A10; REG1A 11.11 ng/mL
In short: as §1

[8] = molecular target: T1, recombinant human regenerating …; assay: sandwich ELISA; capture 4H8F1; REG1A 100.00 ng/mL
In short: as §1

[9] = molecular target: T1, recombinant human regenerating …; assay: sandwich ELISA; capture 12F12A10; REG1A 33.33 ng/mL
In short: as §1

[10] = molecular target: T1, recombinant human regenerating …; assay: sandwich ELISA; capture 21B11D2; REG1A 33.33 ng/mL
In short: as §1

[11] = molecular target: T1, recombinant human regenerating …; assay: sandwich ELISA; capture 4H8F1; REG1A 3.70 ng/mL
In short: as §1

[12] = molecular target: T1, recombinant human regenerating …; assay: sandwich ELISA; capture 25F3C4; REG1A 3.70 ng/mL
In short: as §1

[13] = molecular target: T1, recombinant human regenerating …; assay: sandwich ELISA; capture 25F3C4; REG1A 100.00 ng/mL
In short: as §1

[14] = molecular target: T1, recombinant human regenerating …; assay: sandwich ELISA; capture 11D11B11; REG1A 100.00 ng/mL
In short: as §1

[15] = molecular target: T1, recombinant human regenerating …; assay: sandwich ELISA; capture 21B11D2; REG1A 0 ng/mL (blank)
In short: as §1

[16] = molecular target: T1, recombinant human regenerating …; assay: sandwich ELISA; capture 11D11B11; REG1A 3.70 ng/mL
In short: as §1

[17] = molecular target: T1, recombinant human regenerating …; assay: sandwich ELISA; capture 21B11D2; REG1A 1.23 ng/mL
In short: as §1

[18] = molecular target: T1, recombinant human regenerating …; assay: sandwich ELISA; capture 25F3C4; REG1A 1.23 ng/mL
In short: as §1

[19] = molecular target: T1, recombinant human regenerating …; assay: sandwich ELISA; capture 12F12A10; REG1A 1.23 ng/mL
In short: as §1

[20] = molecular target: T1, recombinant human regenerating …; assay: sandwich ELISA; capture 21B11D2; REG1A 11.11 ng/mL
In short: as §1

[21] = molecular target: T1, recombinant human regenerating …; assay: sandwich ELISA; capture 25F3C4; REG1A 11.11 ng/mL
In short: as §1

[22] = molecular target: T1, recombinant human regenerating …; assay: sandwich ELISA; capture 21B11D2; REG1A 100.00 ng/mL
In short: as §1

[23] = molecular target: T1, recombinant human regenerating …; assay: sandwich ELISA; capture 11D11B11; REG1A 0 ng/mL (blank)
In short: as §1

[24] = molecular target: T1, recombinant human regenerating …; assay: sandwich ELISA; capture 12F12A10; REG1A 0 ng/mL (blank)
In short: as §1

[25] = molecular target: T1, recombinant human regenerating …; assay: sandwich ELISA; capture 25F3C4; REG1A 0 ng/mL (blank)
In short: as §1

[26] = molecular target: T1, recombinant human regenerating …; assay: sandwich ELISA; capture 11D11B11; REG1A 11.11 ng/mL
In short: as §1

[27] = molecular target: T1, recombinant human regenerating …; assay: sandwich ELISA; capture 4H8F1; REG1A 11.11 ng/mL
In short: as §1

[28] = molecular target: T1, recombinant human regenerating …; assay: sandwich ELISA; capture 4H8F1; REG1A 1.23 ng/mL
In short: as §1

[29] = molecular target: T1, recombinant human regenerating …; assay: sandwich ELISA; capture 25F3C4; REG1A 33.33 ng/mL
In short: as §1

[30] = molecular target: T1, recombinant human regenerating …; assay: sandwich ELISA; capture 4H8F1; REG1A 33.33 ng/mL
In short: as §1

Binder | OD value [1] [OD] | OD value [2] [OD] | OD value [3] [OD] | OD value [4] [OD] | OD value [5] [OD] | OD value [6] [OD] | OD value [7] [OD] | OD value [8] [OD] | OD value [9] [OD] | OD value [10] [OD] | OD value [11] [OD] | OD value [12] [OD] | OD value [13] [OD] | OD value [14] [OD] | OD value [15] [OD] | OD value [16] [OD] | OD value [17] [OD] | OD value [18] [OD] | OD value [19] [OD] | OD value [20] [OD] | further results
B1 | 0.069 | 0.07 | 3.35 | 0.069 | 2.38 | 0.063 | 2.89 | 0.08 | 3.21 | 0.071 | 0.068 | 0.068 | 0.073 | 0.065 | 0.073 | 0.06 | 0.066 | 0.066 | 1.18 | 0.069 | OD value [21]: 0.069 OD; OD value [22]: 0.068 OD; OD value [23]: 0.068 OD; OD value [24]: 0.068 OD; OD value [25]: 0.068 OD; OD value [26]: 0.066 OD; OD value [27]: 0.07 OD; OD value [28]: 0.072 OD; OD value [29]: 0.071 OD; OD value [30]: 0.073 OD
B2 | 4.59 | 1.05 | 0.096 | 0.088 | 0.088 | 4.08 | 0.088 | 4.33 | 0.098 | 4.59 | 3.84 | 4.25 | 4.48 | 4.22 | 0.09 | 2.81 | 3.9 | 3.76 | 0.098 | 4.23 | OD value [21]: 4.37 OD; OD value [22]: 4.65 OD; OD value [23]: 0.083 OD; OD value [24]: 0.089 OD; OD value [25]: 0.093 OD; OD value [26]: 3.9 OD; OD value [27]: 4.22 OD; OD value [28]: 2.99 OD; OD value [29]: 4.29 OD; OD value [30]: 4.33 OD
